Measured values: US20060073508

Tested on: hemagglutinin epitope-tagged Del301-303 human alpha-2B adrenergic receptor

GRK2 (βARK1)
agonist-promoted phosphorylation relative to wild-type: the Del301-303 receptor displayed -56% of wild-type phosphorylation
basal phosphorylation of the receptor: Basal phosphorylation was equivalent between the two receptors.
